B1: Hsp70 10mer peptide Ac-GSGPTIEEVD-OH [modified: N-terminal acetyl; N-terminal acetyl] [not stated] / protein phosphatase 5 (PP5), human, full-length [human] (parent complex)
chain 1: GSGPTIEEVD
chain 2: MAMAEGERTECAEPPRDEPPADGALKRAEELKTQANDYFKAKDYENAIKFYSQAIELNPSNAIYYGNRSLAYLRTECYGYALGDATRAIELDKKYIKGYYRRAASNMALGKFRAALRDYETVVKVKPHDKDAKMKYQECNKIVKQKAFERAIAGDEHKRSVVDSLDIESMTIEDEYSGPKLEDGKVTISFMKELMQWYKDQKKLHRKCAYQILVQVKEVLSKLSTLVETTLKETEKITVCGDTHGQFYDLLNIFELNGLPSETNPYIFNGDFVDRGSFSVEVILTLFGFKLLYPDHFHLLRGNHETDNMNQIYGFEGEVKAKYTAQMYELFSEVFEWLPLAQCINGKVLIMHGGLFSEDGVTLDDIRKIERNRQPPDSGPMCDLLWSDPQPQNGRSISKRGVSCQFGPDVTKAFLEENNLDYIIRSHEVKAEGYEVAHGGRCVTVFSAPNYCDQMGNKASYIHLQGSDLRPQFHQFTAVPHPNVKPMAYANTLLQLGMM

In the assay the parent is B1. The experiment in a line: competition fluorescence polarisation; read at the highest peptide concentration, 100 µM; read off a plot. (In general: In fluorescence polarisation assays a small probe gives low polarisation when free and higher when bound to something large.)
Take chain 1 GSGPTIAEVD: the response was approximately 36 % tracer bound.
On to chain 1 GSGPTAEEVD, for which the response is approximately 12 % tracer bound.
With chain 1 GSGPTIEEAD, the response is approximately 56 % tracer bound.
Regarding chain 1 GSGPTIEEVA, the response is approximately 110 % tracer bound.
For the variant chain 1 E8A, the response was approximately 74 % tracer bound.
